The values that follow come from patent publication US20190345234A1 (CENTRE HOSPITALIER UNIVERSITAIRE VAUDOIS, published 2019).

This experiment deals with Fc-gamma receptor I (CD64) (UniProt P12314 16-374). Put plainly: cell-based or functional assay.
Sequence of Fc-gamma receptor I (CD64) (P12314 16-374 limits assumed, form in doubt): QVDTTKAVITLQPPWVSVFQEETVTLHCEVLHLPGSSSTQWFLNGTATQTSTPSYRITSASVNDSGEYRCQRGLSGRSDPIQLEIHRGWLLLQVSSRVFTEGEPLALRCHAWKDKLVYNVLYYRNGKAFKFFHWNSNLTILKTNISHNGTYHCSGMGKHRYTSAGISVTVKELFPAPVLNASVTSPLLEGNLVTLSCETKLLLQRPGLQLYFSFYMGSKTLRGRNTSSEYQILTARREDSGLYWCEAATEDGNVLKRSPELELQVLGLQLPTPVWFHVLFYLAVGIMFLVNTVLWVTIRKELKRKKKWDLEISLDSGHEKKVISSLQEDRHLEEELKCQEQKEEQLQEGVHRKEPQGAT

B1: IgG1 LN01 antibody (antibody, V domains shown)
VH: EVQLVESGPGLVQPWGTLSLTCRVSGDSVSNDNYYWAWIRQTPGRELQVIGTIYYSGTTYYNPSLRNRVTISLDKSVNVVSLRLGSVSAADTAQYYCVRMPSHGFWSTSFSYWYFDLWGRGHFVAVSW
VL: DIQMTQSPSSLSASVGDKVTITCRASQSVTKYLNWYQFKTGQAPRILIYGTYTLLSGVSPRFSGAGSGSLYTLTITNIQPEDFATYYCQQAHSTPWTFGQGTHVAAN
On to B1, for which the “neutralizing activity on TZM-bl cells expressing Fc-gamma receptor I against parental TZM-bl cells” value was 100 fold.
